Test results taken from patent publication US20180085432A1, “STING (Stimulator of Interferon Genes), A Regulator of Innate Immune Responses” (University of Miami, priority 2008, published 2018).

What was measured:
A366 peptide = assay: screening of kinases for S366 of STING (33P-ATP); assay type: biochemical; conditions: kinase mixed with peptide and 33P-ATP
Procedure: (§1) The activity of 217 protein kinase targets were evaluated against 2 peptides (A366 and S366) as substrate. Protein kinases were mixed with each peptide and ^33P-ATP and then activity (CPM) was measured. The below kinases were identified as phosphorylating S366 in STING. Identification of kinases which target this serine opens up novel avenues for drug discovery. Drugs that target this association may inhibit STING activity and be used for therapeutic purposes to inhibit STING activity. STING over activity may lead to inflammatory diseases which can exacerbate cancer.

S366 peptide = assay: screening of kinases for S366 of STING (33P-ATP); assay type: biochemical; conditions: for Fold inducton: S366 peptide vs A366 peptide; for Activity, S366 peptide: kinase mixed with peptide and 33P-ATP
Procedure: as §1

Molecule	Activity (cpm), kinase mixed with peptide and 33P-ATP (A366 peptide of STING)	Activity (cpm), kinase mixed with peptide and 33P-ATP (S366 peptide of STING)	Activity, A366 peptide (A366 peptide)	Fold inducton (S366 peptide)	Activity, S366 peptide (S366 peptide)
IRAK4 (enzyme) MNKPITPSTYVRCLNVGLIRKLSDFIDPQEGWKKLAVAIKKPSGDDRYNQFHIRRFEALLQTGKSPTSELLFDWGTTNCTVGDLVDLLIQNEFFAPASLLLPDAVPKTANTLPSKEAITVQQKQMPFCDKDRTLMTPVQNLEQSYMPPDSSSPENKSLEVSDTRFHSFSFYELKNVTNNFDERPISVGGNKMGEGGFGVVYKGYVNNTTVAVKKLAAMVDITTEELKQQFDQEIKVMAKCQHENLVELLGFSSDGDDLCLVYVYMPNGSLLDRLSCLDGTPPLSWHMRCKIAQGAANGINFLHENHHIHRDIKSANILLDEAFTAKISDFGLARASEKFAQTVMTSRIVGTTAYMAPEALRGEITPKSDIYSFGVVLLEIITGLPAVDEHREPQLLLDIKEEIEDEEKTIEDYIDKKMNDADSTSVEAMYSVASQCLHEKKNKRPDIKKVQQLLQEMTAS	7440 cpm	50400 cpm	7435 cpm	6.77	50353 cpm
MEKK1 (enzyme) NQKCKEKMEAEEEEALAIAMAMSASQDALPIVPQLQVENGEDIIIIQQDTPETLPGHTKAKQPYREDTEWLKGQQIGLGAFSSCYQAQDVGTGTLMAVKQVTYVRNTSSEQEEVVEALREEIRMMSHLNHPNIIRMLGATCEKSNYNLFIEWMAGGSVAHLLSKYGAFKESVVINYTEQLLRGLSYLHENQIIHRDVKGANLLIDSTGQRLRIADFGAAARLASKGTGAGEFQGQLLGTIAFMAPEVLRGQQYGRSCDVWSVGCAIIEMACAKPPWNAEKHSNHLALIFKIASATTAPSIPSHLSPGLRDVALRCLELQPQDRPPSRELLKHPVFRTTW	11300 cpm	24900 cpm	11316 cpm	2.20	24866 cpm
NEK2 (enzyme) MPSRAEDYEVLYTIGTGSYGRCQKIRRKSDGKILVWKELDYGSMTEAEKQMLVSEVNLLRELKHPNIVRYYDRIIDRTNTTLYIVMEYCEGGDLASVITKGTKERQYLDEEFVLRVMTQLTLALKECHRRSDGGHTVLHRDLKPANVFLDGKQNVKLGDFGLARILNHDTSFAKTFVGTPYYMSPEQMNRMSYNEKSDIWSLGCLLYELCALMPPFTAFSQKELAGKIREGKFRRIPYRYSDELNEIITRMLNLKDYHRPSVEEILENPLIADLVADEQRRNLERRGRQLGEPEKSQDSSPVLSELKLKEIQLQERERALKAREERLEQKEQELCVRERLAEDKLARAENLLKNYSLLKERKFLSLASNPELLNLPSSVIKKKVHFSGESKENIMRSENSESQLTSKSKCKDLKKRLHAAQLRAQALSDIEKNYQLKSRQILGMR	8700 cpm	162000 cpm	8702 cpm	18.65	162331 cpm
NEK9 (enzyme) MSVLGEYERHCDSINSDFGSESGGCGDSSPGPSASQGPRAGGGAAEQEELHYIPIRVLGRGAFGEATLYRRTEDDSLVVWKEVDLTRLSEKERRDALNEIVILALLQHDNIIAYYNHFMDNTTLLIELEYCNGGNLYDKILRQKDKLFEEEMVVWYLFQIVSAVSCIHKAGILHRDIKTLNIFLTKANLIKLGDYGLAKKLNSEYSMAETLVGTPYYMSPELCQGVKYNFKSDIWAVGCVIFELLTLKRTFDATNPLNLCVKIVQGIRAMEVDSSQYSLELIQMVHSCLDQDPEQRPTADELLDRPLLRKRRREMEEKVTLLNAPTKRPRSSTVTEAPIAVVTSRTSEVYVWGGGKSTPQKLDVIKSGCSARQVCAGNTHFAVVTVEKELYTWVNMQGGTKLHGQLGHGDKASYRQPKHVEKLQGKAIRQVSCGDDFTVCVTDEGQLYAFGSDYYGCMGVDKVAGPEVLEPMQLNFFLSNPVEQVSCGDNHVVVLTRNKEVYSWGCGEYGRLGLDSEEDYYTPQKVDVPKALIIVAVQCGCDGTFLLTQSGKVLACGLNEFNKLGLNQCMSGIINHEAYHEVPYTTSFTLAKQLSFYKIRTIAPGKTHTAAIDERGRLLTFGCNKCGQLGVGNYKKRLGINLLGGPLGGKQVIRVSCGDEFTIAATDDNHIFAWGNGGNGRLAMTPTERPHGSDICTSWPRPIFGSLHHVPDLSCRGWHTILIVEKVLNSKTIRSNSSGLSIGTVFQSSSPGGGGGGGGGEEEDSQQESETPDPSGGFRGTMEADRGMEGLISPTEAMGNSNGASSSCPGWLRKELENAEFIPMPDSPSPLSAAFSESEKDTLPYEELQGLKVASEAPLEHKPQVEASSPRLNPAVTCAGKGTPLTPPACACSSLQVEVERLQGLVLKCLAEQQKLQQENLQIFTQLQKLNKKLEGGQQVGMHSKGTQTAKEEMEMDPKPDLDSDSWCLLGTDSCRPSL	6980 cpm	26300 cpm	6977 cpm	3.77	26284 cpm
RIPK5 (enzyme) SICSQFRTRLNSSHEAFAASLRQLEAGHSGRLEKTEDLWLRVRKDHAPRLARLSLESCSLQDVLLHRKPKLGQELGRGQYGVVYLCDNWGGHFPCALKSVVPPDEKHWNDLALEFHYMRSLPKHERLVDLHGSVIDYNYGGGSSIAVLLIMERLHRDLYTGLKAGLTLETRLQIALDVVEGIRFLHSQGLVHRDIKLKNVLLDKQNRAKITDLGFCKPEAMMSGSIVGTPIHMAPELFTGKYDNSVDVYAFGILFWYICSGSVKLPEAFERCASKDHLWNNVRRGARPERLPVFDEECWQLMEACWDGDPLKRPLLGIVQPMLQGIMNRLCKSNSEQPNRGLDDST	1330 cpm	16000 cpm	1327 cpm	12.03	15966 cpm

Second part, led by results:

Activity (cpm), kinase mixed with peptide and 33P-ATP (A366 peptide of STING)	Activity (cpm), kinase mixed with peptide and 33P-ATP (S366 peptide of STING)	Molecule	Activity, A366 peptide (A366 peptide)	Fold inducton (S366 peptide)	Activity, S366 peptide (S366 peptide)
6600 cpm	16700 cpm	TBK1 (protein kinase panel) (enzyme) MQSTSNHLWLLSDILGQGATANVFRGRHKKTGDLFAIKVFNNISFLRPVDVQMREFEVLKKLNHKNIVKLFAIEEETTTRHKVLIMEFCPCGSLYTVLEEPSNAYGLPESEFLIVLRDVVGGMNHLRENGIVHRDIKPGNIMRVIGEDGQSVYKLTDFGAARELEDDEQFVSLYGTEEYLHPDMYERAVLRKDHQKKYGATVDLWSIGVTFYHAATGSLPFRPFEGPRRNKEVMYKIITGKPSGAISGVQKAENGPIDWSGDMPVSCSLSRGLQVLLTPVLANILEADQEKCWGFDQFFAETSDILHRMVIHVFSLQQMTAHKIYIHSYNTATIFHELVYKQTKIISSNQELIYEGRRLVLEPGRLAQHFPKTTEENPIFVVSREPLNTIGLIYEKISLPKVHPRYDLDGDASMAKAITGVVCYACRIASTLLLYQELMRKGIRWLIELIKDDYNETVHKKTEVVITLDFCIRNIEKTVKVYEKLMKINLEAAELGEISDIHTKLLRLSSSQGTIETSLQDIDSRLSPGGSLADAWAHQEGTHPKDRNVEKLQVLLNCMTEIYYQFKKDKAERRLAYNEEQIHKFDKQKLYYHATKAMTHFTDECVKKYEAFLNKSEEWIRKMLHLRKQLLSLTNQCFDIEEEVSKYQEYTNELQETLPQKMFTASSGIKHTMTPIYPSSNTLVEMTLGMKKLKEEMEGVVKELAENNHILERFGSLTMDGGLRNVDCL	6603 cpm	2.52	16651 cpm
12200 cpm	209000 cpm	ULK1 (enzyme) MEPGRGGTETVGKFEFSRKDLIGHGAFAVVFKGRHREKHDLEVAVKCINKKNLAKSQTLLGKEIKILKELKHENIVALYDFQEMANSVYLVMEYCNGGDLADYLHAMRTLSEDTIRLFLQQIAGAMRLLHSKGIIHRDLKPQNILLSNPAGRRANPNSIRVKIADFGFARYLQSNMMAATLCGSPMYMAPEVIMSQHYDGKADLWSIGTIVYQCLTGKAPFQASSPQDLRLFYEKNKTLVPTIPRETSAPLRQLLLALLQRNHKDRMDFDEFFHHPFLDASPSVRKSPPVPVPSYPSSGSGSSSSSSSTSHLASPPSLGEMQQLQKTLASPADTAGFLHSSRDSGGSKDSSCDTDDFVMVPAQFPGDLVAEAPSAKPPPDSLMCSGSSLVASAGLESHGRTPSPSPPCSSSPSPSGRAGPFSSSRCGASVPIPVPTQVQNYQRIERNLQSPTQFQTPRSSAIRRSGSTSPLGFARASPSPPAHAEHGGVLARKMSLGGGRPYTPSPQVGTIPERPGWSGTPSPQGAEMRGGRSPRPGSSAPEHSPRTSGLGCRLHSAPNLSDLHVVRPKLPKPPTDPLGAVFSPPQASPPQPSHGLQSCRNLRGSPKLPDFLQRNPLPPILGSPTKAVPSFDFPKTPSSQNLLALLARQ	12221 cpm	17.10	209014 cpm
7380 cpm	15600 cpm	ULK2 (enzyme) MEVVGDFEYSKRDLVGHGAFAVVFRGRHRQKTDWEVAIKSINKKNLSKSQILLGKEIKILKELQHENIVALYDVQELPNSVFLVMEYCNGGDLADYLQAKGTLSEDTIRVFLHQIAAAMRILHSKGIIHRDLKPQNILLSYANRRKSSVSGIRIKIADFGFARYLHSNMMAATLCGSPMYMAPEVIMSQHYDAKADLWSIGTVIYQCLVGKPPFQANSPQDLRMFYEKNRSLMPSIPRETSPYLANLLLGLLQRNQKDRMDFEAFFSHPFLEQGPVKKSCPVPVPMYSGSVSGSSCGSSPSCRFASPPSLPDMQHIQEENLSSPPLGPPNYLQVSKDSASTSSKNSSCDTDDFVLVPHNISSDHSCDMPVGTAGRRASNEFLVCGGQCQPTVSPHSETAPIPVPTQIRNYQRIEQNLTSTASSGTNVHGSPRSAVVRRSNTSPMGFLRPGSCSPVPADTAQTVGRRLSTGSSRPYSPSPLVGTIPEQFSQCCCGHPQGHDSRSRNSSGSPVPQAQSPQSLLSGARLQSAPTLTDIYQNKQKLRKQHSDPVCPSHTGAGYSYSPQPSRPGSLGTSPTKHLGSSPRSSDWFFKTPLPTIIGSPTKTTAPFKIPKTQASSNLLALVTRHGPAEE	7377 cpm	21.13	15580 cpm
